{"source": "paper PMC8683389", "about": "“The monofunctional CO dehydrogenase CooS is essential for growth of Thermoanaerobacter kivui on carbon monoxide” (Extremophiles, 2021)", "proteins": {"B1": {"name": "His-CooSF1 complex of Thermoanaerobacter kivui (complex)", "chain 1": "MSDNYIYSAEKVIDELSRKPGFVDTAIKRWEKRDPKCGFGYKGICCRLCSNGPCRITPTQPVGICGATADTIVARNLLRAIAAGTSCYVHHCRNAANTLLSVAEGKSSYTIKDEEKLKKYAKKMGINTNKDIKRIAYEFATRVLNDLSKPYTEKAELVEKLSLPARVSTWKSLNIMPGGVNEEIIAALTKTSTNLNSDPVDMAVHCLRLGIITGIYGLELTCIMQDILLGSPKIASTYSNFGVIDQGYINLATIGGHQQVVSNRILEMASSKEWVKKAQEAGAKGFKIYGVTCVGQDYELRCASDKNSAFGGYVGNNFTQEYILGTGAIDLVFSEFNCTLPGIEPICKEYLVKQICLDDVAKKVGADLYQFQPEKADEYAAITLDEAIKAYKNRRGKVKIDVPTEKTPAMTGFTEDSIKGALGGSWKLLIDLIVKGDIKGVAGVVGCSNMAAKGHGIYGVELTKELIKRDILVLGNGCVGGNLENAGLYGLESIELAGPKLKEVCRKLNIPPVLNIGPCLSIGRIHIIAEEIAEELKVDVPQIPVVASAPQWLEEQALADGTFGVVLGLDLLLGTPPAVTGSNLITELLTSKLKDMVGARFIIEADPILGADAMESSIMERRKLLNI", "chain 2": "MDVKSGTKYIFADIKKCLGCRCCEQACADANGNRPYWELLGSGIPLSPNINILYIFLQDKNYPVMAQAVCRQCEDAPCVKICPVKAISVNPDGIKVIDKQRCIGCHSCSIVCPFGAVYIPDKHAVATKCTLCIERKGAEGQPACVEACPNGALQLVDTKEIGREKVKKIVSDTFSNK", "notes": "as the chain of m1; as the chain of m2; Written as the CooS-CooF1 unit; also called His-CooFS1; source: T. kivui pMU131_His-cooS, purified (Ni2+-NTA, Superdex 200); not shown: 10 x His, N-terminal, kept"}}, "molecular_target": "the molecule itself", "assay": "SEC; analytical size exclusion on a calibrated Superdex 200 column, buffer B, size standards 43-440 kDa; oligomeric state of the purified complex"}
{"protein": "B1", "values": [{"measurement": "stoichiometry N", "result": 6}]}
